These are literature values, as cited in PMC4769797.

In this series the target is VEGFR1 (Homo sapiens) (UniProt P17948).
UniProt P17948, sequence (P17948 27-1338): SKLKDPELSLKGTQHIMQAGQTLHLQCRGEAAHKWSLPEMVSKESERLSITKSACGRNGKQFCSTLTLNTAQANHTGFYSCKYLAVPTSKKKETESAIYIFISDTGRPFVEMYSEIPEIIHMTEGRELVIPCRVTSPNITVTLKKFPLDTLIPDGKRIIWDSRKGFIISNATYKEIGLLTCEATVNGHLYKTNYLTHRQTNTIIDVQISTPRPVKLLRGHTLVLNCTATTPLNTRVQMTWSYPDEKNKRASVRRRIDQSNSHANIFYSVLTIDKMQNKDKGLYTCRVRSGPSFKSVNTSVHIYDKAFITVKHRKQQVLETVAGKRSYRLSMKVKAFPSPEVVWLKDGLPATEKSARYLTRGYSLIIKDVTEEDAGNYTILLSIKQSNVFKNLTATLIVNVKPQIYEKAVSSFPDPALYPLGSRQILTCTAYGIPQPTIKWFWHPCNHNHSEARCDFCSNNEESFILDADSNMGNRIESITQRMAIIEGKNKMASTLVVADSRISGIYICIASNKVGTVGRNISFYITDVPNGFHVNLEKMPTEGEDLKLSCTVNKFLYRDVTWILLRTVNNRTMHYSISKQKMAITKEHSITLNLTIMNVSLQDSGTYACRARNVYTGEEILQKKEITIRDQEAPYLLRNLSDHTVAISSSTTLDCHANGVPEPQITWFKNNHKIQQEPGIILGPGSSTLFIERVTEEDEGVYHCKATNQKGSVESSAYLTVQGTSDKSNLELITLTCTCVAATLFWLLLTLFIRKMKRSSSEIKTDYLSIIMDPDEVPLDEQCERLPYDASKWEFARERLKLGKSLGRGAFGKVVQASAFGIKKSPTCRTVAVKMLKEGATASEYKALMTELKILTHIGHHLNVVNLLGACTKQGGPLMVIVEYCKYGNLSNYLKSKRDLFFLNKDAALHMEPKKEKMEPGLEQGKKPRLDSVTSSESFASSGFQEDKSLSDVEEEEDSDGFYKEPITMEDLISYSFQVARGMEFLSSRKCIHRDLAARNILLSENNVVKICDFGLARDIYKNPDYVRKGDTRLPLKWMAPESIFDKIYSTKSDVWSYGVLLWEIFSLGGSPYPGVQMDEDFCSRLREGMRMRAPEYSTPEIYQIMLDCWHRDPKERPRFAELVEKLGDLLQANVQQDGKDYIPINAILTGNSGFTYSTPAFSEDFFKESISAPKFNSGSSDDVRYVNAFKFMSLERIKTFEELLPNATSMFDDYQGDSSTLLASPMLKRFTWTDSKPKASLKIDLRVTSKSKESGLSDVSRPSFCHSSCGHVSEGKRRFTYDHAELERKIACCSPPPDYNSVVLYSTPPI

As to VEGFA (from UniProt P15692), the equilibrium dissociation constant (Kd) (in general, the concentration at which binding is half-saturated) was 0.1 nM.
